The record followed here is the supplement of paper PMC9112550, “Optimization of the antimicrobial peptide Bac7 by deep mutational scanning” (BMC Biology, 2022).
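Also: peptides expressed intracellularly from a pBAD plasmid library in pooled LB shake-flask culture, induced with 0.3% L-arabinose, DNA abundance read by NGS, three biological replicates, DESeq2 with apeglm shrinkage.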

For the data set, the system named is Escherichia coli TOP10. As to the kind of experiment: shrunken log2 fold change of peptide-encoding DNA abundance (4.5 h post-induction vs induction); higher = less antimicrobial activity (less host growth inhibition). The conditions noted are these: time post-induction: 4.5 h; library: site-saturation at positions 5, 18, 19, 20.
On to RRIRQRPPRLPRPRPRPHDLPRP, for which the “shrunken log2 fold change” value is -0.046.
The result for RRIRKRPPRLPRPRPRPEPYPRP reads -0.0587; that for RRIRTRPPRLPRPRPRPILSPRP, -0.0676; that for RRIRWRPPRLPRPRPRPNAQPRP, -0.0306.
Take RRIRHRPPRLPRPRPRPTNEPRP: the “shrunken log2 fold change” value is -0.512.
The result for RRIRMRPPRLPRPRPRPVWSPRP reads 0.709.
The value for RRIRKRPPRLPRPRPRPLKSPRP was 0.713; that for RRIRRRPPRLPRPRPRPWVSPRP was -0.0738.
For RRIRKRPPRLPRPRPRPHARPRP, the “shrunken log2 fold change” value came out at 0.709.
The result for RRIRPRPPRLPRPRPRPIRPPRP reads 0.184.
RRIRVRPPRLPRPRPRPKMWPRP: the “shrunken log2 fold change” value was 0.0893.
The value for RRIRSRPPRLPRPRPRPQHAPRP was -0.153; that for RRIRQRPPRLPRPRPRPGTMPRP was 0.00897; that for RRIRIRPPRLPRPRPRPPCKPRP was -0.422.
The result for RRIRWRPPRLPRPRPRPGARPRP reads 0.659; that for RRIRGRPPRLPRPRPRPPELPRP, 1.18; that for RRIRMRPPRLPRPRPRPAWVPRP, 0.375.
The value for RRIRGRPPRLPRPRPRPQQHPRP was 0.232.
On to RRIRDRPPRLPRPRPRPEDLPRP, for which the “shrunken log2 fold change” value worked out at 0.902.
Turning to RRIRERPPRLPRPRPRPLCVPRP, the “shrunken log2 fold change” value was -0.307.
The result for RRIRKRPPRLPRPRPRPQMEPRP reads -0.0377; that for RRIRKRPPRLPRPRPRPPPIPRP, 0.748.
Consider RRIRMRPPRLPRPRPRPTSKPRP, for which the “shrunken log2 fold change” value was determined as 0.0886.
On to RRIRDRPPRLPRPRPRPAYMPRP, for which the “shrunken log2 fold change” value was -0.342.
The value for RRIRGRPPRLPRPRPRPRDTPRP was 0.649.
The result for RRIRCRPPRLPRPRPRPMEPPRP reads 0.0774.
The result for RRIRYRPPRLPRPRPRPFTNPRP reads 0.0209; that for RRIRMRPPRLPRPRPRPVIQPRP, 0.257; that for RRIRVRPPRLPRPRPRPFWNPRP, -0.00518.
Take RRIRLRPPRLPRPRPRPGGFPRP: the “shrunken log2 fold change” value was determined as 0.176.
RRIRFRPPRLPRPRPRPDWLPRP: the “shrunken log2 fold change” value was -0.0152.
Turning to RRIRLRPPRLPRPRPRPQRTPRP, the “shrunken log2 fold change” value was 0.43.
The value for RRIRRRPPRLPRPRPRPYCHPRP was -0.792.
The value for RRIRERPPRLPRPRPRPAHIPRP was -0.0903; that for RRIRFRPPRLPRPRPRPCIAPRP was -0.166.
The value for RRIRERPPRLPRPRPRPWDFPRP was 0.0275; that for RRIRRRPPRLPRPRPRPKVCPRP was 0.0559.
With RRIRMRPPRLPRPRPRPNEEPRP, the “shrunken log2 fold change” value is -0.0651.
Consider RRIRGRPPRLPRPRPRPYWWPRP, for which the “shrunken log2 fold change” value was -0.0995.
The result for RRIRFRPPRLPRPRPRPKNYPRP reads -0.525; that for RRIRMRPPRLPRPRPRPAVCPRP, 0.103.
The value for RRIRNRPPRLPRPRPRPPGKPRP was 0.484; that for RRIRARPPRLPRPRPRPCWTPRP was 0.01; that for RRIRFRPPRLPRPRPRPMYGPRP was -0.36.
The result for RRIRRRPPRLPRPRPRPIQEPRP reads 0.0641.
As for RRIRGRPPRLPRPRPRPAMRPRP, the “shrunken log2 fold change” value came to 1.17.
On to RRIRRRPPRLPRPRPRPAEPPRP, for which the “shrunken log2 fold change” value was 0.723.
The value for RRIRNRPPRLPRPRPRPMKEPRP was 0.0626; that for RRIRDRPPRLPRPRPRPSNPPRP was -0.281.
In the case of RRIRTRPPRLPRPRPRPQIDPRP, the “shrunken log2 fold change” value is -0.269.
The value for RRIRKRPPRLPRPRPRPCCHPRP was -1.07; that for RRIRFRPPRLPRPRPRPVELPRP was -0.00737.
For the sequence RRIRGRPPRLPRPRPRPAHVPRP, the “shrunken log2 fold change” value was found to be 0.586.
The value for RRIRSRPPRLPRPRPRPNMCPRP was -0.138.
Turning to RRIRNRPPRLPRPRPRPTEFPRP, the “shrunken log2 fold change” value was -0.043.
The value for RRIRNRPPRLPRPRPRPEHQPRP was -0.029; that for RRIRSRPPRLPRPRPRPKQPPRP was 0.0683; that for RRIRLRPPRLPRPRPRPKGQPRP was -0.11.
The value for RRIRDRPPRLPRPRPRPYMEPRP was -0.000464.
On to RRIRTRPPRLPRPRPRPKTDPRP, for which the “shrunken log2 fold change” value was -0.158.
The value for RRIRERPPRLPRPRPRPTWRPRP was 0.268; that for RRIRKRPPRLPRPRPRPMRIPRP was 0.34.
As to RRIRMRPPRLPRPRPRPQRCPRP, the “shrunken log2 fold change” value stood at 0.551.
The value for RRIRVRPPRLPRPRPRPLKSPRP was -0.137; that for RRIRVRPPRLPRPRPRPGEAPRP was 0.474.
RRIRTRPPRLPRPRPRPAVTPRP: the “shrunken log2 fold change” value was 0.102.
The value for RRIRERPPRLPRPRPRPAMVPRP was 0.037; that for RRIRVRPPRLPRPRPRPRIFPRP was 0.137.
The value for RRIRQRPPRLPRPRPRPEGHPRP was 0.00489.
For RRIRVRPPRLPRPRPRPIHLPRP, the “shrunken log2 fold change” value is -0.197.
In the case of RRIRERPPRLPRPRPRPGVPPRP, the “shrunken log2 fold change” value was found to be 0.149.
RRIRPRPPRLPRPRPRPQELPRP: the “shrunken log2 fold change” value was determined as 0.126.
The value for RRIRGRPPRLPRPRPRPDSVPRP was 0.704; that for RRIRARPPRLPRPRPRPPDWPRP was 1.23.
The result for RRIRRRPPRLPRPRPRPQRCPRP reads 0.177; that for RRIRYRPPRLPRPRPRPIRYPRP, -0.00146; that for RRIRIRPPRLPRPRPRPLVYPRP, -0.592.
The result for RRIRERPPRLPRPRPRPNKGPRP reads -0.164; that for RRIRIRPPRLPRPRPRPSNYPRP, -0.086; that for RRIRFRPPRLPRPRPRPSIHPRP, -0.84.
Turning to RRIRERPPRLPRPRPRPGYMPRP, the “shrunken log2 fold change” value was -0.172.
With RRIRDRPPRLPRPRPRPAVRPRP, the “shrunken log2 fold change” value was -0.0321.
Consider RRIRSRPPRLPRPRPRPVQHPRP, for which the “shrunken log2 fold change” value is -0.0389.
The result for RRIRNRPPRLPRPRPRPQSQPRP reads -0.7; that for RRIRRRPPRLPRPRPRPFRWPRP, 0.279.
The result for RRIRKRPPRLPRPRPRPYSIPRP reads -0.182.
Regarding RRIRVRPPRLPRPRPRPRSLPRP, the “shrunken log2 fold change” value was -0.116.
The value for RRIRGRPPRLPRPRPRPTHHPRP was 0.413; that for RRIRPRPPRLPRPRPRPKCPPRP was 0.131; that for RRIRARPPRLPRPRPRPQSTPRP was 0.0836.
Consider RRIRSRPPRLPRPRPRPILHPRP, for which the “shrunken log2 fold change” value is -0.159.
Take RRIRSRPPRLPRPRPRPEKAPRP: the “shrunken log2 fold change” value is -0.193.
As for RRIRCRPPRLPRPRPRPKVLPRP, the “shrunken log2 fold change” value is 0.0115.
With RRIRSRPPRLPRPRPRPDLQPRP, the “shrunken log2 fold change” value was -0.193.
The value for RRIRNRPPRLPRPRPRPLNEPRP was -0.233; that for RRIRHRPPRLPRPRPRPMNTPRP was -0.616; that for RRIRGRPPRLPRPRPRPYWCPRP was -0.0844.
RRIRMRPPRLPRPRPRPMEQPRP: the “shrunken log2 fold change” value was determined as 1.29.
The value for RRIRFRPPRLPRPRPRPAGRPRP was 0.294.
The result for RRIRVRPPRLPRPRPRPVNPPRP reads -0.464; that for RRIRGRPPRLPRPRPRPEEEPRP, 0.107; that for RRIRSRPPRLPRPRPRPQYTPRP, -0.983.
The result for RRIRMRPPRLPRPRPRPWTRPRP reads -0.00172; that for RRIRVRPPRLPRPRPRPRVAPRP, 0.381.
RRIRERPPRLPRPRPRPFSYPRP: the “shrunken log2 fold change” value is -0.0589.
As for RRIRLRPPRLPRPRPRPPEHPRP, the “shrunken log2 fold change” value worked out at 0.188.
The value for RRIRLRPPRLPRPRPRPKWFPRP was 0.154.
In the case of RRIRVRPPRLPRPRPRPKWGPRP, the “shrunken log2 fold change” value was 0.155.
Take RRIRRRPPRLPRPRPRPHCLPRP: the “shrunken log2 fold change” value was -0.192.
The value for RRIRMRPPRLPRPRPRPWLGPRP was 0.221; that for RRIRFRPPRLPRPRPRPAYMPRP was -0.564.
With RRIRYRPPRLPRPRPRPASEPRP, the “shrunken log2 fold change” value is -0.0202.
With RRIRFRPPRLPRPRPRPFYDPRP, the “shrunken log2 fold change” value is -0.0631.
The value for RRIRFRPPRLPRPRPRPRWHPRP was 0.059.
As to RRIRWRPPRLPRPRPRPCQAPRP, the “shrunken log2 fold change” value was found to be 0.201.
The value for RRIRNRPPRLPRPRPRPDWCPRP was 0.0226; that for RRIRERPPRLPRPRPRPVFAPRP was 0.181.
The result for RRIRQRPPRLPRPRPRPLSEPRP reads 0.0232.
The result for RRIRIRPPRLPRPRPRPPMWPRP reads 0.00227; that for RRIRCRPPRLPRPRPRPYDRPRP, -0.188.
Consider RRIRARPPRLPRPRPRPIILPRP, for which the “shrunken log2 fold change” value is -0.262.
Regarding RRIRQRPPRLPRPRPRPAWKPRP, the “shrunken log2 fold change” value stood at 0.0232.
In the case of RRIRTRPPRLPRPRPRPGVFPRP, the “shrunken log2 fold change” value is -0.0409.
Consider RRIRCRPPRLPRPRPRPKAGPRP, for which the “shrunken log2 fold change” value is 0.251.
Consider RRIRFRPPRLPRPRPRPNIWPRP, for which the “shrunken log2 fold change” value was -0.224.
